Experimental data taken from paper doi:10.1101/2022.06.27.497840 (bioRxiv, 2022).
Values belong to the molecule of their own block, whether it stands above or below them.

T1: MBP-Mlh2 (Saccharomyces cerevisiae (SK1), UniProt Q07980 1-695)
T1 sequence: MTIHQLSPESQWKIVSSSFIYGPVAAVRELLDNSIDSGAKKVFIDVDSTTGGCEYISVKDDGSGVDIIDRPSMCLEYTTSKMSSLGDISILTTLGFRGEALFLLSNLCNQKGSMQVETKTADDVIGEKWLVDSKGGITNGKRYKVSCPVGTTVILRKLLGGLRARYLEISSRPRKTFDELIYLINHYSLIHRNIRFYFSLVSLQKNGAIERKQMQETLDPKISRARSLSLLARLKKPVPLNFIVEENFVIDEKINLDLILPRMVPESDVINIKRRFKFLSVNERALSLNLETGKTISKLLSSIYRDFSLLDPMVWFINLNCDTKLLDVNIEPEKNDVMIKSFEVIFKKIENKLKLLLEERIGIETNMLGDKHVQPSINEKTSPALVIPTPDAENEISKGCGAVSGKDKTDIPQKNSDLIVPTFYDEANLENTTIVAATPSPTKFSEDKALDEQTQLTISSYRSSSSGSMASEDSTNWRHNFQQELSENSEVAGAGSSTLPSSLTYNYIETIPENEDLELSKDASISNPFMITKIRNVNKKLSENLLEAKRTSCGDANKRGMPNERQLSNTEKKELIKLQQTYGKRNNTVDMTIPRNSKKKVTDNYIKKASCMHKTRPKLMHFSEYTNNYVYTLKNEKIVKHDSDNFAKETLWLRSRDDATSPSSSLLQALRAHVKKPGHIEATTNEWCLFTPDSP

T2: MBP-Mlh1/MBP-Mlh2 complex (Saccharomyces cerevisiae (SK1), UniProt P38920;Q07980)
T2 sequence 1: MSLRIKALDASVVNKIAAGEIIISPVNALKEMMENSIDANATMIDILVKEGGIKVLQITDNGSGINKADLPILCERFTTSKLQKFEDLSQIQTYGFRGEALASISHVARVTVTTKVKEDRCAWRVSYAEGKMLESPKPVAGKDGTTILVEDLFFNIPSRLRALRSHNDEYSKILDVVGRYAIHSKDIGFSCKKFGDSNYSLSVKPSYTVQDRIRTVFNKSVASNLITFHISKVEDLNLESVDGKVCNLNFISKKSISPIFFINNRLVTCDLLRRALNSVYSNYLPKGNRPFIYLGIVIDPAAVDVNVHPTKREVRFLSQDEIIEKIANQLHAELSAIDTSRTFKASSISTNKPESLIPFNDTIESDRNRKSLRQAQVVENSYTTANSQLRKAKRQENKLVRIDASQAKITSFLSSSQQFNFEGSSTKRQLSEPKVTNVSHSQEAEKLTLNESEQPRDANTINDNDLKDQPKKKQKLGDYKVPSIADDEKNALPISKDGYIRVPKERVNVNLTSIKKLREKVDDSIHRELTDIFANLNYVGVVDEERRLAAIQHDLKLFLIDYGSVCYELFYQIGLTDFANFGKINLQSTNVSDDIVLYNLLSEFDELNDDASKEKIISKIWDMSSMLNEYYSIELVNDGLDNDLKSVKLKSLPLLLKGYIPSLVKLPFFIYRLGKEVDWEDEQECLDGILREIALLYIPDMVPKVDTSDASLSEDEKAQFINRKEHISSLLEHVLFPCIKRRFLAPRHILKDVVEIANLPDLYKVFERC
T2 sequence 2: T1 sequence

T3: MBP-Mlh1 (Saccharomyces cerevisiae (SK1), UniProt P38920 1-769)
T3 sequence: T2 sequence 1

B1: His-tagged Sgs1(1-107) fragment (domain or fragment)
chain: MVTKPSHNLRREHKWLKETATLQEDKDFVFQAIQKHIANKRPKTNSPPTTPSKDECGPGTTNFITSIPASGPTNTATKQHEVMQTLSNDTEWLSYTATSNQYADVPM
B2: Rmi1 (subunit of the Top3/Rmi1 complex as used in XL-MS) (natural protein)
chain: MSFSSILSQDITDDITPPAYSATLGSREQIVFRAYQNEPWLAGTASNLILDKKLVIVDRELLFQVLMVENITKSKLTQIDDIKTKLDPKKQKVDRLRSGAQGNGAKKYEVITQVDMEDDGNVADNNCAKENNSNNNSSAAKNKAVFKLTLQSKSGDVFFAINSTPISWSSCMLGSKIVILPGTVFNRGVFILKDSQVIFLGGINRVWNENRDQKFCDYLESKLQRDKQLVNGGSKKRKAND
B3: Top3/GST-Rmi1 complex (complex)
chain 1: MKVLCVAEKNSIAKAVSQILGGGRSTSRDSGYMYVKNYDFMFSGFPFARNGANCEVTMTSVAGHLTGIDFSHDSHGWGKCAIQELFDAPLNEIMNNNQKKIASNIKREARNADYLMIWTDCDREGEYIGWEIWQEAKRGNRLIQNDQVYRAVFSHLERQHILNAARNPSRLDMKSVHAVGTRIEIDLRAGVTFTRLLTETLRNKLRNQATMTKDGAKHRGGNKNDSQVVSYGTCQFPTLGFVVDRFERIRNFVPEEFWYIQLVVENKDNGGTTTFQWDRGHLFDRLSVLTFYETCIETAGNVAQVVDLKSKPTTKYRPLPLTTVELQKNCARYLRLNAKQSLDAAEKLYQKGFISYPRTETDTFPHAMDLKSLVEKQAQLDQLAAGGRTAWASYAASLLQPENTSNNNKFKFPRSGSHDDKAHPPIHPIVSLGPEANVSPVERRVYEYVARHFLACCSEDAKGQSMTLVLDWAVERFSASGLVVLERNFLDVYPWARWETTKQLPRLEMNALVDIAKAEMKAGTTAPPKPMTESELILLMDTNGIGTDATIAEHIDKIQVRNYVRSEKVGKETYLQPTTLGVSLVHGFEAIGLEDSFAKPFQRREMEQDLKKICEGHASKTDVVKDIVEKYRKYWHKTNACKNTLLQVYDRVKASM
chain 2: B2 chain
B4: Top3/Rmi1 complex (as used in MST, XL-MS and D-loop assays) (complex)
chain 1: B3 chain 1
chain 2: B2 chain
B5: Sgs1(1-605) fragment, untagged (domain or fragment)
chain: MVTKPSHNLRREHKWLKETATLQEDKDFVFQAIQKHIANKRPKTNSPPTTPSKDECGPGTTNFITSIPASGPTNTATKQHEVMQTLSNDTEWLSYTATSNQYADVPMVDIPASTSVVSNPRTPNGSKTHNFNTFRPHMASSLVENDSSRNLGSRNNNKSVIDNSSIGKQLENDIKLEVIRLQGSLIMALKEQSKLLLQKCSIIESTSLSEDAKRLQLSRDIRPQLSNMSIRIDSLEKEIIKAKKDGMSKDQSKGRSQVSSQDDNIISSILPSPLEYNTSSRNSNLTSTTATTVTKALAITGAKQNITNNTGKNSNNDSNNDDLIQVLDDEDDIDCDPPVILKEGAPHSPAFPHLHMTSEEQDELTRRRNMRSREPVNYRIPDRDDPFDYVMGKSLRDDYPDVEREEDELTMEAEDDAHSSYMTTRDEEKEENELLNQSDFDFVVNDDLDPTQDTDYHDNMDVSANIQESSQEGDTRSTITLSQNKNVQVILSSPTAQSVPSNGQNQIGVEHIDLLEDDLEKDAILDDSMSFSFGRQHMPMSHSDLELIDSEKENEDFEEDNNNNGIEYLSDSDLERFDEERENRTQVADIQELDNDLKIITERKL
B6: Top3 (untagged, subunit of the Top3/Rmi1 complex) (enzyme)
chain: B3 chain 1

What was measured:
[1] = molecular target: Mer3-Strep (full-length S. cerevisiae Mer3 with C-terminal 2xStrep-II tag) (Saccharomyces cerevisiae (SK1)) (UniProt P51979); experiment: SEC-MALS
Top3/GST-Rmi1 complex = molecular target: B3; experiment: pull-down
[2] = molecular target: B6; experiment: cross-linking
MBP-Mlh2 = molecular target: T1, MBP-Mlh2; experiment: cross-linking
[3] = molecular target: T2, MBP-Mlh1/MBP-Mlh2 complex; experiment: pull-down
[4] = molecular target: T2, MBP-Mlh1/MBP-Mlh2 complex; experiment: cross-linking
MBP-Mlh1 = molecular target: T3, MBP-Mlh1; experiment: cross-linking

stoichiometry N [1]: 2
Molecule: Mer3-Strep (full-length S. cerevisiae Mer3 with C-terminal 2xStrep-II tag) (from UniProt P51979 1-1187) (enzyme)

Molecule: B1
binding result (Top3/GST-Rmi1 complex): binds

Molecule: B2
binding result [2]: binds
binding result (MBP-Mlh2): binds

Molecule: B3
binding result [3]: binds

Molecule: B4
binding result [4]: binds

Molecule: B5
binding result (Top3/GST-Rmi1 complex): binds

Molecule: B6
binding result (MBP-Mlh1): binds
